# Assay results as given in patent US8343500 (APITOPE TECHNOLOGY BRISTOL, dated 2013).
# B1: MBP 130-144 (peptide)
# peptide: RASDYKSAHKGFKGV
# B2: MBP 30-44 (peptide)
# peptide: PRHRDTGILDSIGRF
# B3: MBP 140-154 (peptide)
# peptide: GFKGVDAQGTLSKIF
# notes: also called ATX-MS-06; APITOPE MS6
# Legend:
# HLA-DQ6 = HLA-DQ6 (human, UniProt P01909 24-254; P01920 33-261); assay: cell-based or functional assay
# HLA-DR2b = biological target: T1, HLA-DR2b (human); assay: conclusion of Example 6; tolerance induction in HLA:DR2 (DRB1*1501) transgenic mice, no direct binding assay
# T1 construct: whole, on cells; also called DR2b [DRB1*1501]; HLA:DR2 (DRB1*1501)
binder,measurement,setting,value
B1,"proliferation of T-cell clone MS17:A2 ([3H]-thymidine, stimulation index), against Mgar control cells",HLA-DQ6,3.24 fold
B2,"proliferation of T-cell clone MS 49:D3 ([3H]-thymidine, stimulation index), against Mgar control cells",HLA-DQ6,1.5 fold
B3,binding result,HLA-DR2b,binds
